Reference: paper PMC12218847 (Nature Communications, 2025)
One block for each molecule: values may come before it.

Assays:
[1] = molecular target: His-tagged potato StISA1 (residues 48–793) (potato); test: AUC
AUC = molecular target: the molecule itself; test: AUC

stoichiometry N [1]: 2
Molecule: His-tagged potato StISA1 (residues 48–793) (enzyme)

B1: His-tagged maize ZmISA1 (residues 45–789) (enzyme, UniProt O22637 45-789, looked up)
chain: AAARPVAEAVQAEEDDDDDDEEVAEERFALGGACRVLAGMPAPLGATALRGGVNFAVYSSGASAASLCLFAPGDLKADRVTEEVPLDPLLNRTGNVWHVFIHGDQLHGMLYGYRFDGVFAPERGQYYDVSNVVVDPYAKAVVSRGEYGVPAPGGSCWPQMAGMIPLPYNKFDWQGDLPLGYHQKDLVIYEMHLRGFTKHNSSKTKHPGTYIGAVSKLDHLKELGVNCIELMPCHEFNELEYFSSSSKMNFWGYSTINFFSPMARYSSSGIRDSGCGAINEFKAFVREAHKRGIEVIMDVVFNHTAEGNEKGPILSFRGIDNSTYYMLAPKGEFYNYSGCGNTFNCNHPVVREFIVDCLRYWVTEMHVDGFRFDLASILTRGCSLWDPVNVYGSPMEGDMITTGTPLVAPPLIDMISNDPILGNVKLIAEAWDAGGLYQVGQFPHWNVWSEWNGKYRDTVRQFIKGTDGFAGAFAECLCGSPQLYQAGGRKPWHSINFVCAHDGFTLADLVTYNSKYNLSNGEDNRDGENHNLSWNCGEEGEFASLSVRRLRKRQMRNFFVCLMVSQGVPMFYMGDEYGHTKGGNNNTYCHDHYVNYFRWDKKEEQSSDLYRFCRLMTKFRKECESLGLEDFPTSERLKWHGHQPGKPDWSEASRFVAFTMKDETKGEIYVAFNTSHLPVVVGLPERSGFRWEPVVDTGKEAPYDFLTDGLPDRAVTVYQFSHFLNSNLYPMLSYSSIILVLRPDV
stoichiometry N (AUC): 2

B2: His-tagged OsISA1 (amino acids 55–803) (enzyme, Oryza sativa (rice), UniProt D0TZF0 55-803, looked up)
chain: SVASAVEVGVGEDEEEGVEEEEEEVEAVVMPERYALGGACRVLAGMPAPLGATALDGGVNFAVYSAGASAASLCLFTPDDLEADEVTEEVPLDPLFNRTGNVWHVFIEGELHNMLYGYRFDGMFAPHCGQYFDVSNVVVDPYAKAVISRGEYGVPGPGGDCWPQMAGMIPLPYSTFDWQGDLPLRYPQKDLVIYEMHLRGFTKHSSSNVEHPGTYIGAISKLDYLKELGVNCVELMPCHEFNELEYFSCSSKMNFWGYSTINFFSPMIRYSSGGIRNCGRDAINEFKTFVREAHKRGIEVIMDVVFNHTAEGNEKGPILSFRGIDNSTYYMLAPKGEFYNYSGCGNTFNCNHPVVREFIVDCLRYWVTEMHVDGFRFDLASIMTRGCSLWDPVNVYGSPVEGDMTTTGTPLATPPLIDMISNDPILGDVKLIAEAWDAGGLYQVGQFPHWKIWSEWNGKYRDIVRQFIKGTDGFAGGFAECLCGSPHLYQAGGRKPWHSINFVCAHDGFTLADLVTYNKKYNSSNGEDNRDGENHNLSWNCGEEGEFAGLSVKRLRKRQMRNFFVSLMVSQGVPMFYMGDEYGHTKGGNNNTYCHDHYVNYFRWDKKEESSDLQRFCSLMTKFRKQCESLGLADFPTAQRLHWHGHQPGKPDWSETSRFVAFSTKDETKGEIYVAFNASHLPAVVGLPERPGYRWEPLVDTGKPAPYDFLTDDLPDRAHAVHLFSHFLNSNLYPMLSYSSIILELQPDD
stoichiometry N (AUC): 2

B3: Arabidopsis AtISA1 (residues 44–783) with C-terminal 6×His-tag (enzyme, UniProt O04196 44-783, looked up)
chain: AKDRRSNEAENIAVVEKPLKSDRFFISDGLPSPFGPTVRDDGVNFSVYSTNSVSATICLISLSDLRQNKVTEEIQLDPSRNRTGHVWHVFLRGDFKDMLYGYRFDGKFSPEEGHYYDSSNILLDPYAKAIISRDEFGVLGPDDNCWPQMACMVPTREEEFDWEGDMHLKLPQKDLVIYEMHVRGFTRHESSKIEFPGTYQGVAEKLDHLKELGINCIELMPCHEFNELEYYSYNTILGDHRVNFWGYSTIGFFSPMIRYASASSNNFAGRAINEFKILVKEAHKRGIEVIMDVVLNHTAEGNEKGPIFSFRGVDNSVYYMLAPKGEFYNYSGCGNTFNCNHPVVRQFILDCLRYWVTEMHVDGFRFDLGSIMSRSSSLWDAANVYGADVEGDLLTTGTPISCPPVIDMISNDPILRGVKLIAEAWDAGGLYQVGMFPHWGIWSEWNGKFRDVVRQFIKGTDGFSGAFAECLCGSPNLYQGGRKPWHSINFICAHDGFTLADLVTYNNKNNLANGEENNDGENHNYSWNCGEEGDFASISVKRLRKRQMRNFFVSLMVSQGVPMIYMGDEYGHTKGGNNNTYCHDNYMNYFRWDKKEEAHSDFFRFCRILIKFRDECESLGLNDFPTAKRLQWHGLAPEIPNWSETSRFVAFSLVDSVKKEIYVAFNTSHLATLVSLPNRPGYRWEPFVDTSKPSPYDCITPDLPERETAMKQYRHFLDANVYPMLSYSSIILLLSPIKDP
stoichiometry N (AUC): 2
